The text below walks through data of paper doi:10.1101/2024.05.01.590489 (bioRxiv, 2024).

B1: Fab2-7 (Fab, V domains shown)
VH: EVQLLESGGGLVQPGGSLRLSCAASGFTFSTYAMNWVRQAPGKGLEWVAGISASGGSAYYVDSVEGRFTISRDNSNNMLYLQMNSLRAEDTAVYYCAKAVYAITMVRGSITTNYYHYYAMDVWGQGTTVTV
VL: EIVLTQSPGTLSLSPGERATLSCRASQGVSSNYLAWYQQKPGQAPRLLIYDASNRATGIPDRFSGSGSGTDFTLTISRLEPEDFAVYYCQQYGSSPPLTFGGGTKVQI
B2: Fab2-1 (Fab, V domains shown)
VH: EVQLLESGGGLVQPGKSLRLSCAASGFSFSNYAMSWVRQAPGKGLEWVSGISGSGGSTNYAESVRGRFTISRDNSKNTLYLEMNSLRVEDTAVYYCAKGMSYYDRSGYFWAKYHYGMDVWGQGITVTVSS
VL: not shown
B3: Fab1-3 (Fab, V domains shown)
VH: VQLVESGGGVVQPGRSLRLSCAASGFSFSSFVFHWVRQAPGKGLEWVAVISYDGSNKNYADSVKGRFTISRDNSKNTLFLQMNSLSADDTAVYYCARGAICSSTTCYLGDSYYFYGMDVWGQGTTVTVSS
VL: LTQPPSVSGAPGQRVTISCTGSRSNIGAGYDVHWYQQLPGTAPKLLIYGNSNRPSGVPDRFSGSKSGTSASLAITGLQTDDEADYYCQSYDSSLSGSVFGGGTKLTVL
B4: Fab2-4 (Fab, V domains shown)
VH: EVQLLESGGGLVHPGGSLRLSCAASGFPFSNFAMSWVRQAPGKGLEWVSTISGSSGSTYYADSVRGRFTISRDYSKNTVYLEMNSLRADDTAIYYCAKDRMITFGEVIVKHYDAFEIWGQGTRVAV
VL: DIQMTQSPSSLSASVGDRVTITCRASQTISTNVNWYQQKPGKAPKLLIYAASSLQSGVPSRFSGSGSGTDFTLTISSLQPEDFATFYCQQSYSAPLTFGEGTKV
B5: Fab2-5 (Fab, V domains shown)
VH: EVQLVESGGGLVKPGGSPRLSCAASGFNFGSYSMNWVRQAPGKGLEWVSSISSSSSYIYYADSVKGRFTISRDNAKHSLYLQVNSLRAEDTAVYYCARDPTTYGYNSAWDKKGWYFDLWGRGTLLTVS
VL: VLTQPPSVSAAPGQMVTISCSGSSSNIGNDYISWYQQLPGTAPKLLIYDNNERPSGIPDRFSGSKSGTSATLGITGVQTGDEADYYCGTWDSSLSAWVFGEGTKLTVV
B6: Fab1-6 (Fab, V domains shown)
VH: QVQLVESGAEVKQPGASVKVSCKASGYIFTSHNIHWVRKAPGQGLEWMGKINPSGGDANYAQKFQGRVVMTRDTSTNTVYVQLRSLRFEDTAVYYCARVHDFWSGYHRALDIWGQGTMVIVSS
VL: VLTQPPSASGTPGQTVTISCSGSSSNVGSHSVNWYQHLPGTAPKLLIYSNHRRPSGVPDRFSGSKSDTSASLAISGIQSEDEADYYCATWDGRLNVLFGGGTKLTVL
B7: Fab2-6 (Fab, V domains shown)
VH: VQLLESGGALVQPGGSLRLSCAASGFSFSNYAMSWVRQAPGKGLEWVSTISASGGTTYFADSVKGHFTISRDNSKNTLYLQMDSLRAEDTAVYYCAKDPNYYDLSGYFLGGYYFDYWGQGTLVTVSS
VL: EIVLTQSPGTLSLSPGERATLSCRASQSVRSSYLAWYQQKPGQAPRLLIYGASSRATDIPDRFSGSGSGTDFTLTISRLEPEDFAVYYCQQYGTSPAFGGGTKV
B8: Fab3-3 (Fab, V domains shown)
VH: QVQLQESGPGLVKSSETLSLTCTVSGESISSSSHYWGWIRQPPGKGLEFLGNVYYLGSTYYNPSLESRVTILLDTSKNQFSLKVNSVTVADTAVYYCARHGAGSYSGLFFDYWGQGARVIVSS
VL: DIQMTQSPSFVSASVGDRVNITCRASQGINSWLAWYQQKPGKAPKLLIYSASSLQSGVPSRFSGSGSGTDFTLTISTLQPEDFATYYCQQANSFPYTFGQGTKVD
B9: Fab1-4 (Fab, V domains shown)
VH: QVQVVESGAEVKKPGASVKVSCKASGYAFTTYYMHWVRQAPGQGLEWMGLINPSGDSITYAQRFQGRVTMTKDTSTSTVYMELSSLRSEDTAIYYCARDPNVAFYYGSGNYYKDNAMDVWGQGTTVTVSS
VL: not shown
B10: Fab2-3 (Fab, V domains shown)
VH: VQLVESGGGLVKPGGSLRLSCATSGFTFSDYYMSWIRQAPGKGLEWVSYISSSGSTIYYADSVKGRFTMSRDNAKNSLFLRMNSLRAEDTAVYYCARDQITVDREVIRAHYYYGMDVWGQGTTVTVS
VL: DIQMTQSPSSVSASVGDRVTITCRASQGINSYLAWYQQKPGKAPKLLIYAASSLESGVPSRFSGSGSGTDFTLTISSLQPEDFATYYCQQANSFPLTFGGGTKVDI
B11: Fab3-4 (Fab, V domains shown)
VH: AVESGGGLVKPGGPLRLSCAASGFSLSDNYMTWIRQAPGKGLEWVSYISSSGSFINYADSVKGRFTISRDNAKNSLYLQMNSLRAEDTAVYYCARVLSSGGLTTSWRALWYFDVWGRGTLVTVS
VL: TVVTQEPSFSVSPGGTVTLTCGLTSGSVSTSYYPSWYQQTPGQTPRTLIYSTNIRSSGVPDRFSGSILGNKAALTITGAQADDECDYYCVLYMGSGIWVFGGGTKLTVL
B12: Fab1-1 (Fab, V domains shown)
VH: EVQLVESGGGLVKPGGSLRLSCAASGVPFSDAWMNWVRQAPGKGLEWVGRIKSKKDGGTADYAAPVKGRFSISRDDSKKMLYLHMNSLKTEDTAVYYCTTEPSGYCSNGLCYTGNYWGQGTLVTVSS
VL: QPVLTQSSSASASLGSSVKLTCTLSSGHITYIIAWHQQQPGKAPRYLMKLEDSGSYNKGSGVPDRFSGSSSGADRYLTISNLQFEDEADYYCETWDSYTRVFGGGTKLT
B13: Fab1-7 (Fab, V domains shown)
VH: QVQLQESGPGLVKPSETLSLTCTVSGDSIRSYYWSWIRQPPGKGLEWIGHIYYSGSTNYKPSLKSRATILVDTSKNQFSLKLRSVTAADTAVYYCAREMTGVAGRGWDHWGQGTLVTVSS
VL: ALTQPPSASGTPGQRVTISCSGSSSNIGSNTVNWYQQLPGTAPKLLIFINNQRPSGVPDRFSGSKSGTSASLAISGLQSEDEADYYCTTWDGSLNGYVFGTRTEVTVL
B14: mAb1-5 (antibody, V domains shown)
VH: EVQLVESGGGLVKPGGSLRLSCAASGFMFSSYSMNWVRQAPGKGLEWVSSISRSDSYIDYADSVKGRFTISRDTAMNVLYLQMDSLRAEDTGVYYCARTHVFNMFREVINDDYYGMDVWGQGTTVTVS
VL: ALTQPASVSGSPGQSITISCTGTSSDFGIYNSVSWYQHHPGKAPKLMIFGVSNRPSGVSNRFSGSKSGNTASLSISGLQAEDEADYYCSSFTARSTVVFGGGTKLTVL
B15: mAb1-2 (antibody, V domains shown)
VH: EVQLVESGGGLVQPGGSLRLSCAASGFIFSNYWMSWVRQAPGKGPEWVANIKQDGSANHYVDSVKGRFTISRDNAKNSLYLQMNSLRAEDTAVYYCAREAYQDWNYDYWGQGTLVTVSS
VL: DIQMTQSPSSLSASVGDRVTVTCRASEFISRYLNWYQQKPGKAPKVLIYAASSLQSGVPSRFSGSGSGTDFTLTISSLQPEDFATYYCQQSYSTPYTFGQGTKLEIK
B16: mAb2-1 (antibody, V domains shown)
VH: B2 VH
VL: not shown
B17: mAb1-3 (antibody, V domains shown)
VH: B3 VH
VL: B3 VL
B18: mAb2-2 (antibody, V domains shown)
VH: QVQLQESGPGLVKPSVTLSLTCTVSGDSISTYYWSWVRQPPGKGLEWIGYIYYSGNTNYNPSLKSRVTMSVDTSKNQFSLKLNSVTAADTAVYYCARTHHDYGDYRPSYYFDYWGQGTLVTVSS
VL: QSALTQPASVSGSPGQSITISCTGTSSDVGAYDYVSWYQQHPGKAPKLMIYDVSNRPSSGVSNRFSGSKSGNTASLTISGLQAEDEADYYCSSYTSSSTVILGGGTKLTVL
B19: mAb1-4 (antibody, V domains shown)
VH: B9 VH
VL: not shown
B20: mAb1-1 (antibody, V domains shown)
VH: B12 VH
VL: B12 VL
B21: mAb1-7 (antibody, V domains shown)
VH: B13 VH
VL: B13 VL

For one test, the target named is T1, AAV9 capsid (adeno-associated virus serotype 9 (AAV9), UniProt Q6JC40). The experiment in a line: cryo-EM structure.
Usually stoichiometry N stands for a count of units in the complex or per binding partner. In the case of B1, the “stoichiometry N” value is at most 60 Fabs per capsid.
On to B2, for which the binding result was “binds”.
Still for that read-out and setting: the result for B3 reads “binds”.
The same measure, in the same setting: the result for B4 reads “binds”; that for B5, “binds”.
As to B6, the “stoichiometry N” value is at most 24 Fabs per capsid.
B7: the binding result was “binds”.
Turning to B8, the binding result was “binds”.
The same measure, in the same setting: the result for B9 reads “binds”.
The same measure, in the same setting: under B10 stands “binds”; under B11, “binds”.
Still for that read-out and setting: under B12 stands “binds”; under B13, “binds”.

The next test concerns the target T1, AAV9 capsid. Kind of test: far-Western, overlay or dot blot.
For B14, the binding result was “binds”.
Same read-out and setting: under B15 stands “binds”; under B16, “binds”; under B17, “binds”.
Same read-out and setting: under B18 stands “binds”; under B19, “binds”.
For the molecule B20, the binding result is reported as “binds”.
On the same count and under the same terms, under B21 stands “binds”.
